Data: the RNAGym collection of RNA variant scans (doi:10.1073/pnas.2313332121)
This sample holds only a part of the variants without activity.

B1: TPR 5TU (parent)
chain: GGAUCUUCUCGAUCUAACAAAAAAGACAAAUCUGCCACAAAGCUUGAGAGCAUCUUCGGAUGCAGAGGCGGCAGCCUUCGGUGGCGCGAUAGCGCCAACGUUCUCAACUAUGACACGCAAAACGCGUGCUCCGUUGAAUGGAGUUUAUCAUG

Variants of: B1
Assay: polymerase ribozyme fitness, log enrichment relative to wild type (log ratio); higher = more active; in vitro selection for triplet polymerase activity
Method in brief: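 Mutant libraries of each subunit of a heterodimeric triplet polymerase ribozyme were built by PCR and transcribed. Each library went through one round of in vitro selection in triplicate: annealing with biotinylated primer, partner subunit and triplets, frozen incubation at −7 °C, gel excision of extended constructs, streptavidin-bead capture and RT-PCR. Input and output libraries were Illumina-sequenced; only genotypes with ≥10 input reads and ≥1 read per output were kept. Fitness is log2(genotype enrichment/wild-type enrichment), using inverse-variance-weighted replicate averages.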

Row | Variant | polymerase ribozyme fitness (log ratio)
1 | A28C A30U | -3.88
2 | A28G C43G G83U C93A U135G | ≤ -4.2
3 | A29C A30C G62C C125G A137G A142U | -4.11
4 | A28U U82G A137C | ≤ -4.2
5 | A28U A41G G42C G94C | ≤ -4.2
6 | A29C U31G C95A A119G A142C G152U | ≤ -4.2
7 | A28G G92U C93A | ≤ -4.2
8 | A28U G88C A91U C118A | ≤ -4.2
9 | A28G A47U A49C C85A G136C U146G | ≤ -4.2
10 | A28U A41U G67C C93U | ≤ -4.2
11 | A28C G124C | ≤ -4.2
12 | A28U U33G A89G A91G C95A A98C | ≤ -4.2
13 | A30G C54U A91U U102G U109G A110G G133C A147U | ≤ -4.2
14 | A28G C54G C76U G94A | -4
15 | A28C G67C C87A U109A | ≤ -4.2
16 | A30C C75G G81U C87U A120U | -4.16
17 | C27G G143C A150G | ≤ -4.2
18 | A29C C87U G94U A107C U127G G140A | ≤ -4.2
19 | A29C A52C C76U C96A U135G A147C | -4.08
20 | C27G U44G A89C A142U | ≤ -4.2
21 | A29U G58A C85G A138C | ≤ -4.2
22 | A28G C36U C87A A119U G133A | ≤ -4.2
23 | A28G G58C C87U C99U | ≤ -4.2
24 | C27U C54G G84A C95G A122G | -2.89

Row | Variant | polymerase ribozyme fitness (log ratio)
25 | A28U G50C | ≤ -4.2
26 | A28G C76A A107G G141U U148C | ≤ -4.2
27 | A29G C85A C114A A121G U134C | ≤ -4.2
28 | A29C G68A G92C G133A | ≤ -4.2
29 | A29C U55A | -3.74
30 | A30C A49U C57G C79A C96U A107U | ≤ -4.2
31 | C27U A37G U104G | -4.08
32 | A28C A66G U148A | ≤ -4.2
33 | A29U A40C U56A G88A A121U G126A G136A | -3.9
34 | A28C G94C | -4.04
35 | C27G U53A U55A A91G C103G A137U | ≤ -4.2
36 | A30G G83U G117A | ≤ -4.2
37 | A28G G46A U55G C57A A73U C96A | ≤ -4.2
38 | A30C G71U A98G C103G | ≤ -4.2
39 | A28U G59C C93U A138G | ≤ -4.2
40 | C27U U55G U61A C87G | ≤ -4.2
41 | A30U A39C A49C U104C C125G | ≤ -4.2
42 | A29C C96A U102G G124U | ≤ -4.2
43 | A29U A37C U55G U135C | ≤ -4.2
44 | A29U A40C G62U G70A G84A C96A U139C | ≤ -4.2
45 | A28U G84A C125U G126A G152U | ≤ -4.2
46 | A28G U53A U144G | ≤ -4.2
47 | A30U G50C G71C A107G | ≤ -4.2
48 | C27U A41C A73G C75U C93A | ≤ -4.2

Row | Variant | polymerase ribozyme fitness (log ratio)
49 | C27G G50A G58A G83U | ≤ -4.2
50 | A30G C38U G48A A66C G80U G84A C105G U109A C125A | ≤ -4.2
51 | A28U A110C | ≤ -4.2
52 | A29U G59C A64G C96G U104C U109G | ≤ -4.2
53 | A30C U31A U44A U55A C57G C76G | ≤ -4.2
54 | A29U C38U A64U G88A A97U C116U | ≤ -4.2
55 | A29C U33A A41C U45A A91G | ≤ -4.2
56 | A28U C95U C99U C118A | ≤ -4.2
57 | A28G A73U | ≤ -4.2
58 | A28U A49C G58C G59A G84U U146A C149U | ≤ -4.2
59 | A30C U56A C57G C87U U102G G143C | ≤ -4.2
60 | A28U C38A C63U G83A C103A | ≤ -4.2
61 | A30C G74C C75A C76U G84U C87A C116G | ≤ -4.2
62 | A28U C116G | -3.74
63 | A28U C96A A121U U148C | ≤ -4.2
64 | C27U U45A G81A G124U | ≤ -4.2
65 | C27U G58A C63A G84U | -2.45
66 | C27U C76G G88A C93G G100U | ≤ -4.2
67 | C27U C36A A39C A41G G68A C93A A138G U139A | ≤ -4.2
68 | A30U G58C C95U U135C U144A | ≤ -4.2
69 | A29C C79G C96U U104C | ≤ -4.2
70 | A29C C35A U53A C57U G92A C118U A122G G136A C149U | ≤ -4.2
71 | A29U U77A C95G | ≤ -4.2
72 | A28G U33A A40U C87U G92A U127A G152U | -3.85

Row | Variant | polymerase ribozyme fitness (log ratio)
73 | A28C C38A G46A A66C G71U U127G | ≤ -4.2
74 | A28C C32U U45A U61G U78G G92C C93A U101G C132A A150C | ≤ -4.2
75 | A29U A41G G48C A138G | ≤ -4.2
76 | C27U U44A C54U U56A A60U U82A C85U A97C C105G A110C C118A | ≤ -4.2
77 | C27U U55G C85U A89U | -2.33
78 | A29G U31C A52G C57U C85U C87A A150U | ≤ -4.2
79 | A28U G42C G83C A121U | ≤ -4.2
80 | A30G C79U G140C | ≤ -4.2
81 | A28U C51A C54U C85U C123G C129U | ≤ -4.2
82 | A29C C63A C87U U101C A115C G117C G133A | ≤ -4.2
83 | A30G A49G | ≤ -4.2
84 | A30C C38U G74A | ≤ -4.2
85 | A28U A49C U56A C95A C96U C108U G128U | ≤ -4.2
86 | A29U A30G C51U A89G C149A | ≤ -4.2
87 | A29U C95A A106G U134A | ≤ -4.2
88 | C27U U145G | -1.39
89 | C27U C54G C87U G92A C118A U144G | -3.12
90 | C27U A52G U53A C118G | -2.63
91 | C27G C95U | -3.51
92 | A30G A52C A60C C125U | ≤ -4.2
93 | C27U C131U | 0.137
94 | A28G A37C A41C C69A C85U G133C | ≤ -4.2
95 | A30C C51U G58U G80A | ≤ -4.2
96 | A30U G42U G65A G86U A121U | ≤ -4.2

Row | Variant | polymerase ribozyme fitness (log ratio)
97 | C27U G46A C54U C85G | -3.63
98 | C27G G84A | -3.69
99 | C27G C75A C79G G92U A121C C131G A147C | ≤ -4.2
100 | A28U C38U G59U A60G G94A C95U C103U | ≤ -4.2
101 | A30U G86A C96U A107U A142U C149G | ≤ -4.2
102 | A28U G48C C85A A97U A122G G143A U146C | ≤ -4.2
103 | A30U C85A C95A C125A U148A | ≤ -4.2
104 | A29U G46C G50C C95G C114G | ≤ -4.2
105 | A29G G94U C114U G128A | ≤ -4.2
106 | A29U G50U G59A C87A | ≤ -4.2
107 | A28U C35A A41U U53A G59A C85U G128A | ≤ -4.2
108 | A28G U55A G67U A89C C129A G140C | ≤ -4.2
109 | A30U G100U | ≤ -4.2
110 | C27U A73G C79A G140C | ≤ -4.2
111 | A28U G92C A113U | ≤ -4.2
112 | A28U C32G G133C | ≤ -4.2
113 | A30C U55A C57G C93U C105G G124U | ≤ -4.2
114 | C27U C36U C57U G58A C96A A121U G140A | ≤ -4.2
115 | A29C C69G C103G U151G | ≤ -4.2
116 | A29G U53A | -3.63
117 | C27U C32U A40U A49C C54U C87U A89U A98U | ≤ -4.2
118 | A29U C38A G50C A52C A66U G74C C108G C132A | ≤ -4.2
119 | A29U C54U U78C C99G C116U | ≤ -4.2
120 | A30U G94A G141A | ≤ -4.2

Row | Variant | polymerase ribozyme fitness (log ratio)
121 | A30G C123U G133U C149G | ≤ -4.2
122 | A28U A47G C96A G141A | ≤ -4.2
123 | A29C A41G G46U A49G C75U G83A A121G G152U | ≤ -4.2
124 | C27U U101G G136A | -1.57
125 | A28C G42A A113U C116U | ≤ -4.2
126 | A28U G133U A137C | ≤ -4.2
127 | A29G C57A C93A C96A U145G | ≤ -4.2
128 | A30C U31A C75A C79A U144A | ≤ -4.2
129 | A29G C57G G136U | ≤ -4.2
130 | A30U G83A C95A U135G | ≤ -4.2
131 | A28U C57G | -3.84
132 | A30C C79U A119U C129G U134G A150G | -4.04
133 | A29C C43G U53A G62U A147C | ≤ -4.2
134 | A28U A60C A91G A98U | ≤ -4.2
135 | A28U C32A G50C C96A A106G U127G | ≤ -4.2
136 | A28U G58A G88C G133A A138G G143U | ≤ -4.2
137 | A29G A52C G74A G92U C95G | ≤ -4.2
138 | A28C C38A G48C A73G U144C | ≤ -4.2
139 | C27U A47U C96A C103A G117A | ≤ -4.2
140 | C27U U101C | -0.938
141 | A29C C108A A142U | ≤ -4.2
142 | A30U C38G C93U | ≤ -4.2
143 | A28U U44G A60C C85A U144C U148A | ≤ -4.2
144 | A29U C76G U82G G88C | ≤ -4.2

Row | Variant | polymerase ribozyme fitness (log ratio)
145 | A29G C75U C96U U139G | ≤ -4.2
146 | A29U U61A G74U C118A U130A | ≤ -4.2
147 | A30C G50C G65A G84A U109G A142U | ≤ -4.2
148 | A30C A40C U56A A60G A66G A89U C93A C99U A106C G126U C131U U134A | ≤ -4.2
149 | A28C C87A C108G U146C | ≤ -4.2
150 | A29U G92C C95U A106C C114U G128U A138G | ≤ -4.2
151 | A30G A47G G71C C87G U135G | ≤ -4.2
152 | A29C G46U U127G | ≤ -4.2
153 | A29G A98G | ≤ -4.2
154 | C27U U53A | -2.76
155 | A29C G88C G92U | ≤ -4.2
156 | A28U A41C U61A C99A A122C | ≤ -4.2
157 | A28U A37C | -3.93
158 | C27G U77A G86U A115G C131U G143C U151G | ≤ -4.2
159 | A30G C63A C99U | ≤ -4.2
160 | A28U G50A U77C C85A C96G C105G G141A U144C | ≤ -4.2
161 | A30G A41G A52G | -2.03
162 | A28G A66C C79U G92U U148C | -3.86
163 | A29U G50U U55A G86C G141C | ≤ -4.2
164 | C27U U53A G70U | -3.43
165 | A29U C32G C75U U77G G80A | ≤ -4.2
166 | A30C C36A A52G C108A G152A | ≤ -4.2
167 | A28C C54A G100A | ≤ -4.2
